Target: DYK-tagged transmembrane serine protease 13 (TMPRSS13) stably expressed in HEK cells (HEK-T) (human) (UniProt Q9BYE2)
Assay: co-IP; competition: 20 µg recombinant spike S2 fragment added to HEK-T cells 2 h before IL4I1; read-out IL4I1 co-precipitated with TMPRSS13-DYK

UniProt Q9BYE2, sequence (Q9BYE2 other isoform, or with tags, fused parts or gaps): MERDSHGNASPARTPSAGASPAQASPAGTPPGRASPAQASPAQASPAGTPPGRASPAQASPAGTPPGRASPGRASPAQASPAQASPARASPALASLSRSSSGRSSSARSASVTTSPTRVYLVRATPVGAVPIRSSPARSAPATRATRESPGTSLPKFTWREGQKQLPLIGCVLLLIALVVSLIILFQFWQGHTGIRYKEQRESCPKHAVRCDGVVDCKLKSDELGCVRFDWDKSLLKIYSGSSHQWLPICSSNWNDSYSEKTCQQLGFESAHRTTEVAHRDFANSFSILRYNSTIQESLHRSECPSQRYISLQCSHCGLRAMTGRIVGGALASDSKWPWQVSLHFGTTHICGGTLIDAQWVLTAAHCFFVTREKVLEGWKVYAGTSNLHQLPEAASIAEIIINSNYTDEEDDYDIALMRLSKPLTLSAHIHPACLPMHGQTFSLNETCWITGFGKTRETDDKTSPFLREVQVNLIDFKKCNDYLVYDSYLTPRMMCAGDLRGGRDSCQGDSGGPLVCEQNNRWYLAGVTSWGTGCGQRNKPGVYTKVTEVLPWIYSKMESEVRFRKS

Which percent decrease of IL4I1 binding to TMPRSS13 with 20 µg S2 per 80 µg IL4I1 does the source give for “recombinant S2 fragment of the SARS-CoV-2 spike protein (domain or fragment)” here?
Its percent decrease of IL4I1 binding to TMPRSS13 with 20 µg S2 per 80 µg IL4I1 is 50%.
